Values joined by “and” are separate entries in the source; they are usually repeats but may differ in a detail not shown here. Equal values may be shown once. Read-outs that look alike come from different tables or passages of the source.
B1: CT120 (antibody, V domains shown)
VH: QVQLVQSGAEVKMPGSSVKVSCKTSGVFFSSHAISWVRQAPGQGLEWMGGISPMFGTTHYAQKFQGRVTITADQSTTTAYMELTSLTSEDTAVYYCARDGAGSYYPLNWFDPWGQGTLVTVSS
VL: EIVLTQSPATLSLSPGERATLSCRASENIWNNLAWYQQKPGQAPRLLISGASTGATGVPSRFRGSGSRTEFTLTISSLQSEDFAIYFCQQYNSWPRTFGPGTKVEIKR
B2: CT104 (antibody, V domains shown)
VH: QVQLVQSGAEVKKPGSSVKVSCKASGGTLNNYAISWVRQAPGQGLEWMGGISPIFGTLNYAERFQGRVTITADVFTNTVYMELSSLRSEDTAVYFCARGCGYNCYYFDGWGQGTLVTVSS
VL: EIVLTQSPGTLSLSPGERATLSCRASQSLSSSSLVWYQQKPGQAPRLLIYGASSRATGIPDRFSGSGSGTDFTLTISRLEPEDFAVYYCQQYGNSPYTFGQGTQVEIKR
B3: CT123 (antibody, V domains shown)
VH: QVQLVESGGGVVQPGRSLRLSCAASGFTFSRFGIHWVRQAPGKGLEWMAVIWYDGSNKFYADSVKGRFTISRDNSKNTVYLQMNSLRAEDTAVYYCAKDSRGYCSSIICFEGGLDNWGQGTLVTVSS
VL: ETVLTQSPGTLSLSPGERATLSCRASQSVSISYLAWYQRKPGQAPRLLIYGASRRATGIPDRFSGSGSGTDFTLTISRLEPEDFAVYYCQQYGSSPYTFGQGTKLEIKR
B4: CT149 (antibody, V domains shown)
VH: QVQLVQSGAEVKKPGASVKVSCKTSGYSFSTYGVSWVRQAPGQGPEWVGWISAYTGITDYAQKFQGRVTLTTDATTATAFLDLRSLRPDDTATYFCARDKVQGRVEVGSGGRHDYWGQGTLVIVSS
VL: EVVLTQSPGTLALPPGERATLSCRASHRVGSTYIAWYQQKSGQAPRRLIYGASNRATDIPDRFSGSGSGTDFTLTIRRLEPEDSAVYYCQQFSVSPWTFGQGTRVEIKR

Legend:
[1] = molecular target: T1, HA of A/New York/18/2009 (H1N1) virus (Influenza A virus A/New York/18/2009 …); assay: cell-based or functional assay
[2] = molecular target: T2, HA of A/Ohio/83 (H1N1) virus (Influenza A virus A/Ohio/83 (H1N1)); assay: cell-based or functional assay
[3] = molecular target: T3, HA of A/Solomon Islands/2006 (H1N1) virus (Influenza A virus A/Solomon …); assay: cell-based or functional assay
[4] = molecular target: T4, HA of A/Texas/05/2009 (H1N1) virus (Influenza A virus A/Texas/05/2009 (H1N1)); assay: cell-based or functional assay
[5] = molecular target: T5, HA of A/Ohio/07/2009 (H1N1) virus (Influenza A virus A/Ohio/07/2009 (H1N1)); assay: cell-based or functional assay
[6] = molecular target: T6, HA of Anhui/1/05 (H5N1) virus (Influenza A virus A/Anhui/1/05 (H5N1)); assay: cell-based or functional assay
[7] = molecular target: T1, HA of A/New York/18/2009 (H1N1) virus; assay: cell-based or functional assay; remark: listed apart in the source
[8] = molecular target: T7, HA of A/Brisbane/10/07 (H3N2) virus (Influenza A virus A/Brisbane/10/07 …); assay: cell-based or functional assay
[9] = molecular target: T2, HA of A/Ohio/83 (H1N1) virus; assay: cell-based or functional assay; remark: listed apart in the source
[10] = molecular target: T3, HA of A/Solomon Islands/2006 (H1N1) …; assay: cell-based or functional assay; remark: listed apart in the source
[11] = molecular target: T8, HA of A/Wisconsin/67/05 (H3N2) virus (Influenza A virus A/Wisconsin/67/05 …); assay: cell-based or functional assay
[12] = molecular target: T4, HA of A/Texas/05/2009 (H1N1) virus; assay: cell-based or functional assay; remark: listed apart in the source
[13] = molecular target: T9, HA of A/ck/HK/G9/97 (H9N2) virus (Influenza A virus A/ck/HK/G9/97 (H9N2)); assay: cell-based or functional assay
[14] = molecular target: T10, HA of A/Ann Arbor/6/60 ca (H2N2) virus (Influenza A virus A/Ann Arbor/6/60 ca …); assay: cell-based or functional assay
[15] = molecular target: HA of A/turkeyNirginia/02 (H7N2) virus (Influenza A virus A/turkey/Virginia/02 …); assay: cell-based or functional assay
[16] = molecular target: HA of A/Green-winged teal/209/TX/2009 (H9N2) virus (Influenza A virus A/Green-winged …); assay: cell-based or functional assay
[17] = molecular target: T5, HA of A/Ohio/07/2009 (H1N1) virus; assay: cell-based or functional assay; remark: listed apart in the source
[18] = molecular target: T6, HA of Anhui/1/05 (H5N1) virus; assay: cell-based or functional assay; remark: listed apart in the source
[19] = molecular target: T2, HA of A/Ohio/83 (H1N1) virus; assay: cell-based or functional assay; remark: listed apart in the source
[20] = molecular target: T3, HA of A/Solomon Islands/2006 (H1N1) …; assay: cell-based or functional assay; remark: listed apart in the source
[21] = molecular target: T4, HA of A/Texas/05/2009 (H1N1) virus; assay: cell-based or functional assay; remark: listed apart in the source
[22] = molecular target: T9, HA of A/ck/HK/G9/97 (H9N2) virus; assay: cell-based or functional assay; remark: listed apart in the source
[23] = molecular target: T10, HA of A/Ann Arbor/6/60 ca (H2N2) virus; assay: cell-based or functional assay; remark: listed apart in the source
[24] = molecular target: HA of A/PuertoRico/8/34 (H1N1) virus (Influenza A virus A/PuertoRico/8/34 …, UniProt P03452 18-565); assay: cell-based or functional assay
[25] = molecular target: T11, purified recombinant HA protein of H1N1 (A/Solomon Island/03/06) (Influenza A virus A/Solomon …)
[26] = molecular target: T11, purified recombinant HA protein of H1N1 …; assay: SPR, Biacore T200, HA captured via anti-6x his tag antibody, 25 C
[27] = molecular target: T12, HA of A/Hong Kong/68 (H3N2) virus (Influenza A virus A/Hong Kong/68 (H3N2)); assay: cell-based or functional assay
[28] = molecular target: HA of A/Beijing/32/92-R-H3N2 PR8 virus (Influenza A virus A/Beijing/32/92 (H3N2)); assay: cell-based or functional assay
[29] = molecular target: HA of A/Anhui/1/2013 (H7N9) virus (Influenza A virus A/Anhui/1/2013 (H7N9)); assay: cell-based or functional assay
[30] = molecular target: HA of A/Shanghai/2/2013 (H7N9) virus (Influenza A virus A/Shanghai/2/2013 …); assay: cell-based or functional assay
[31] = molecular target: HA of A/Perth/16/09 (H3N2) virus (Influenza A virus A/Perth/16/09 (H3N2)); assay: cell-based or functional assay
[32] = molecular target: HA of A/Sydney/5/97 (H3N2) virus (Influenza A virus A/Sydney/5/97 (H3N2)); assay: cell-based or functional assay
[33] = molecular target: T7, HA of A/Brisbane/10/07 (H3N2) virus; assay: cell-based or functional assay; remark: listed apart in the source
[34] = molecular target: T8, HA of A/Wisconsin/67/05 (H3N2) virus; assay: cell-based or functional assay; remark: listed apart in the source
[35] = molecular target: T12, HA of A/Hong Kong/68 (H3N2) virus; assay: cell-based or functional assay; remark: listed apart in the source

Binder	MN test: lowest antibody concentration at which no virus antigen was detected [1]	MN test: lowest antibody concentration at which no virus antigen was detected [2]	MN test: lowest antibody concentration at which no virus antigen was detected [3]	MN test: lowest antibody concentration at which no virus antigen was detected [4]	MN test: lowest antibody concentration at which no virus antigen was detected [5]	MN test: lowest antibody concentration at which no virus antigen was detected [6]	MN test: lowest antibody concentration at which no virus antigen was detected [7]	MN test: lowest antibody concentration at which no virus antigen was detected [8]	MN test: lowest antibody concentration at which no virus antigen was detected [9]	MN test: lowest antibody concentration at which no virus antigen was detected [10]	MN test: lowest antibody concentration at which no virus antigen was detected [11]	MN test: lowest antibody concentration at which no virus antigen was detected [12]	MN test: lowest antibody concentration at which no virus antigen was detected [13]	MN test: lowest antibody concentration at which no virus antigen was detected [14]	MN test: lowest antibody concentration at which no virus antigen was detected [15]	MN test: lowest antibody concentration at which no virus antigen was detected [16]	EC50, microneutralization test [18]	EC50, microneutralization test [22]	Kd [25]	Kd [26]	also measured
B1	0.313 µg/mL	0.156 µg/mL	0.625 µg/mL	0.313 µg/mL	0.039 µg/mL	0.625 µg/mL	0.313 µg/mL	> 20 µg/mL	0.156 µg/mL	0.625 µg/mL	> 10 µg/mL	0.156 µg/mL	0.078 µg/mL	0.312 µg/mL	> 20 µg/mL	0.625 µg/mL	6.92 µg/mL	3.12 µg/mL	2.82 nM	2.79 nM and 2.85 nM	EC50, microneutralization test [17]: 0.14 µg/mL; EC50, microneutralization test [19]: 0.26 µg/mL; EC50, microneutralization test [20]: 0.25 µg/mL; EC50, microneutralization test [21]: 1.19 µg/mL; EC50, microneutralization test [23]: 6.53 µg/mL; EC50, microneutralization test [24]: 0.33 µg/mL; koff [26]: 0.000684 s⁻¹ and 0.000703 s⁻¹; kon [26]: 245000 M⁻¹ s⁻¹ and 246000 M⁻¹ s⁻¹
B2	0.625 µg/mL	0.313 µg/mL	0.625 µg/mL	0.313 µg/mL																	
B3	0.625 µg/mL	0.313 µg/mL	1.25 µg/mL	0.313 µg/mL																	
B4					5 µg/mL	0.625 µg/mL	> 10 µg/mL	1.25 µg/mL	> 10 µg/mL	> 10 µg/mL	1.25 µg/mL	> 10 µg/mL	0.312 µg/mL	> 10 µg/mL	10 µg/mL	0.156 µg/mL	11 µg/mL	7.39 µg/mL	345 nM	368 nM and 323 nM	MN test: lowest antibody concentration at which no virus antigen was detected [27]: 2.5 µg/mL; EC50, microneutralization test [28]: 1.36 µg/mL; EC50, microneutralization test (Contract Lab A) [29]: 0.9 µg/mL; EC50, microneutralization test (Contract Lab A) [30]: 1.17 µg/mL; EC50, microneutralization test (Contract Lab B) [30]: 7.71 µg/mL; EC50, microneutralization test [31]: 2.06 µg/mL; EC50, microneutralization test [32]: 2.93 µg/mL; koff [26]: 0.0904 s⁻¹ and 0.105 s⁻¹; kon [26]: 246000 M⁻¹ s⁻¹ and 324000 M⁻¹ s⁻¹; MN test: lowest antibody concentration at which no virus antigen was detected [33]: 1.25 µg/mL; MN test: lowest antibody concentration at which no virus antigen was detected [34]: 1.25 µg/mL; MN test: lowest antibody concentration at which no virus antigen was detected [35]: 2.5 µg/mL
